B1: Ras-related protein Rab-8A (Homo sapiens), P61006 (parent)
chain: MAKTYDYLFKLLLIGDSGVGKTCVLFRFSEDAFNSTFISTIGIDFKIRTIELDGKRIKLQIWDTAGQERFRTITTAYYRGAMGIMLVYDITNEKSFDNIRNWIRNIEEHASADVEKMILGNKCDVNDKRQVSKERGEKLALDYGIKFMETSAKANINVENAFFTLARDIKAKMDKKLEGNSPQGSNQGVKITPDQQKRSSFFRCVLL
partner: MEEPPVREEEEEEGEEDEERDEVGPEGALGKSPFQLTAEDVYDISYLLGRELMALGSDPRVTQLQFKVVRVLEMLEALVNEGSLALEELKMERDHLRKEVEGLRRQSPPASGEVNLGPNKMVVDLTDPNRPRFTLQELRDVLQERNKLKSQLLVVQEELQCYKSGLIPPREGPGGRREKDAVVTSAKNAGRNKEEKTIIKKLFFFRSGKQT

Variants of: B1
Conditions: with ripl2_human RILPL2, Q969X0

effect of a mutation on the interaction | Variant
with no effect | MAKTYDYLFKLLLIGDSGVGKTCVLFRFSEDAFNSTFISTIGIDFKIRTIELDGKRIALQIWDTAGQERFRTITTAYYRGAMGIMLVYDITNEKSFDNIRNWIRNIEEHASADVEKMILGNKCDVNDKRQVSKERGEKLALDYGIKFMETSAKANINVENAFFTLARDIKAKMDKKLEGNSPQGSNQGVKITPDQQKRSSFFRCVLL [K58A]
disrupting interaction strength | MAKTYDYLFKLLLIGDSGVGKTCVLFRFSEDAFNSTFISTIGIDFKIRTIELDGKRIQLQIWDTAGQERFRTITTAYYRGAMGIMLVYDITNEKSFDNIRNWIRNIEEHASADVEKMILGNKCDVNDKRQVSKERGEKLALDYGIKFMETSAKANINVENAFFTLARDIKAKMDKKLEGNSPQGSNQGVKITPDQQKRSSFFRCVLL [K58Q]
disrupting interaction strength | MAKTYDYLFKLLLIGDSGVGKTCVLFRFSEDAFNSTFISTIGIDFKIRTIELDGKRIELQIWDTAGQERFRTITTAYYRGAMGIMLVYDITNEKSFDNIRNWIRNIEEHASADVEKMILGNKCDVNDKRQVSKERGEKLALDYGIKFMETSAKANINVENAFFTLARDIKAKMDKKLEGNSPQGSNQGVKITPDQQKRSSFFRCVLL [K58E]

Continued, variant first:

Variant | effect of a mutation on the interaction
MAKTYDYLFKLLLIGDSGVGKTCVLFRFSEDAFNSTFISTIGINFKIRTIELDGKRIKLQIWDTAGQERFRTITTAYYRGAMGIMLVYDITNEKSFDNIRNWIRNIEEHASADVEKMILGNKCDVNDKRQVSKERGEKLALDYGIKFMETSAKANINVENAFFTLARDIKAKMDKKLEGNSPQGSNQGVKITPDQQKRSSFFRCVLL [D44N] | disrupting interaction strength
MAKTYDYLFKLLLIGDSGVGKTCVLFRFSEDAFNSTFISTIGIKFKIRTIELDGKRIKLQIWDTAGQERFRTITTAYYRGAMGIMLVYDITNEKSFDNIRNWIRNIEEHASADVEKMILGNKCDVNDKRQVSKERGEKLALDYGIKFMETSAKANINVENAFFTLARDIKAKMDKKLEGNSPQGSNQGVKITPDQQKRSSFFRCVLL [D44K] | disrupting interaction strength

Variants of: B1
Conditions: with ripl2_human RILPL2, Q969X0
Remark: another data set of the same source

effect of a mutation on the interaction | Variant
disrupting interaction strength | MAKTYDYLFKLLLIGDSGVGKNCVLFRFSEDAFNSTFISTIGIDFKIRTIELDGKRIKLQIWDTAGQERFRTITTAYYRGAMGIMLVYDITNEKSFDNIRNWIRNIEEHASADVEKMILGNKCDVNDKRQVSKERGEKLALDYGIKFMETSAKANINVENAFFTLARDIKAKMDKKLEGNSPQGSNQGVKITPDQQKRSSFFRCVLL [T22N]

Source: IntAct's records for PubMed 32017888
